In this experiment the target is ArsR6 (Flag-tagged, in the complemented strain C[change]) (Brucella suis S2). Kind of experiment: cross-linking.

As usually defined, the stoichiometry N is a count of units in the complex or per binding partner. Take “ArsR6 (Flag-tagged, in the complemented strain C[change]) (natural protein)”: the stoichiometry N is 2.

These data come from article PMC8509827.
